1 molecule from patent publication US20110065176A1 (PHARMABCINE, published 2011) can be followed below.

In the experiment the target is T1, KDR (VEGFR-2) expressed on the cell surface (human, UniProt P35968 20-1356).
T1 construct: whole, on cells; also called endogenous human KDR; KDR of HUVEC cells
The experiment can be described thus: FACS on HUVEC cells pretreated with 20 ng/ml VEGF, against IMC-1C11 IgG.

T1 sequence (P35968 20-1356): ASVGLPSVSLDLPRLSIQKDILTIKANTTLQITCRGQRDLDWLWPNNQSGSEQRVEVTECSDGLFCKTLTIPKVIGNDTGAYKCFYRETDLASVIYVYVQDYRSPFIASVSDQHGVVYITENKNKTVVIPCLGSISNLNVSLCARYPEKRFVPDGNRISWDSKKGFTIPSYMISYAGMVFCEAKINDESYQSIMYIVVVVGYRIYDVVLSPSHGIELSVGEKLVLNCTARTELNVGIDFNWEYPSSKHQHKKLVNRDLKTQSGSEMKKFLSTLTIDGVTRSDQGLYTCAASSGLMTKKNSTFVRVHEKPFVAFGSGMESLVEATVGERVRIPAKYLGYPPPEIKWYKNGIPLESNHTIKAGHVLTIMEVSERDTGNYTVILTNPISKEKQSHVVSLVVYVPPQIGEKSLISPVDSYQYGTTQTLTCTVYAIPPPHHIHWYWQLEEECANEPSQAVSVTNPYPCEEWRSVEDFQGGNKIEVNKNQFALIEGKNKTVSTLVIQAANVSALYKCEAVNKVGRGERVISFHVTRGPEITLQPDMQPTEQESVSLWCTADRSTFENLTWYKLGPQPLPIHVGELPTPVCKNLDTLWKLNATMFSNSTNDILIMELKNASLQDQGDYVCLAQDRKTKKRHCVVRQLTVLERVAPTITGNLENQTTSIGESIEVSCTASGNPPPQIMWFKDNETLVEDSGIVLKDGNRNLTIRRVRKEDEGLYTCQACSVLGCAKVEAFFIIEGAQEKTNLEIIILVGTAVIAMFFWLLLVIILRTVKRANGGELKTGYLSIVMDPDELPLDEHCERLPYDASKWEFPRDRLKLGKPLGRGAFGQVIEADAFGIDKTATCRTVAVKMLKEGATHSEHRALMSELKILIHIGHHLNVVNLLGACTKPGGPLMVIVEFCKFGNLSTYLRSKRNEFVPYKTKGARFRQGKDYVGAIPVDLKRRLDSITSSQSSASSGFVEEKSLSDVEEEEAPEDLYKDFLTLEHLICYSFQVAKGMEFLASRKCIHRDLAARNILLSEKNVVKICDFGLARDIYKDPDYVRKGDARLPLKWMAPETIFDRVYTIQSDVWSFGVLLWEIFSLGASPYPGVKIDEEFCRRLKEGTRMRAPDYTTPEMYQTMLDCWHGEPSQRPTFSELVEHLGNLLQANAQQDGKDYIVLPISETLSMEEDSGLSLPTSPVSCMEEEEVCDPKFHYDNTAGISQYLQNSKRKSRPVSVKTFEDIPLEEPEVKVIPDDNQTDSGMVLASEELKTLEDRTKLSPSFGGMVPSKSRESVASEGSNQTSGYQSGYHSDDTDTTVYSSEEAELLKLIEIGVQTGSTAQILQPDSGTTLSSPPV

B1: 6A6 IgG (antibody, V domains shown)
VH: QMQLVQSGAEVKKPGASVKLSCKASGYTFSSYWMHWVRQAPGQRLEWMGEINPGNGHTNYNEKFKSRVTITVDKSASTAYMELSSLRSEDTAVYYCAKIWGPSLTSPFDYWGQGTLVTVSS
VL: SNFMLTQPPSVSVSPGKTARITCRGDNLGDVNVHWYQQRPGQAPVLVMYYDADRPSGIPERFSGSNSGNTATLTISGVEAGDEADYYCQVWDRTSEYVFGTGTKVTVLG
notes: Whole human IgG expressed in CHO DG44 cells; also called 6A6 antibody; anti-KDR 6A6 IgG
With B1, the “fold higher KDR neutralizing ability than IMC-1C11 IgG” value was approximately 2 fold.
